The nanobody polyreactivity screen of Harvey et al. (2022)

Experiment: yeast display, Sf9 membrane polyspecificity reagent, FACS + sequencing; frameworks hold sequencing errors
In short: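 A nanobody's polyreactivity label depends on the gate it was sorted from. Yeast display cells were stained with 10% biotinylated, detergent-solubilized Sf9 membrane reagent for 1 hour at 4 °C, enriched on streptavidin microbeads and sorted by FACS. The low and high (top ~1%) gates were set on anti-HA fluorescence for expression and streptavidin fluorescence for reagent binding.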

Which “polyreactivity (PSR sort gate)” value does the source give for “QVQLVESGGGLVQAGGSLRLSCAASGRIIRINAMGSYRPAPGKERELVAAITRGGTTYADSVKGRFTISRDNAKNTVYLQMTSLIPEDTSVYNCNARTGRSPSGFRYWGQGTQVTVSS” here?
The value was “high polyreactivity”.

Which “polyreactivity (PSR sort gate)” value does the source give for “QVQLVESGGGLVQAGGSLRLSCAASGRIIRINAMGWYRQAPGKERELVATISRSGGRTYYADSVKGRFTISRDNAKNTVYLQMNSLKPEDTAVYYCNADHFYYSSQYGYWGQGTQVTVSS” here?
The value was “high polyreactivity”.

For “QVQLVESGGGLVQAGGSLRLSCAASGRIIRYYAMGWYRQAPGKEREFVATISSGGSTNYADSVKGRFTISRDNAKNTVYLQMNSLKPEDTAVYYCNRVYRRHVWGQGTQVTVSS”, which “polyreactivity (PSR sort gate)” value is on record?
The value was “high polyreactivity”.

Which “polyreactivity (PSR sort gate)” value does the source give for “QVQLVESGGGLVQAGGSLRLSCAASGRIISRYTMGWSRQAPGKEREWVAGISRSGDRTYYADSVKGRFTISRDNAKNTVYLQMNSLKPEDTAVYSCNAGYWRFIDSYDYWGQGTQVTVSS” here?
Its value is “high polyreactivity”.

With “QVQLVESGGGLVQAGGSLRLSCAASGRIISYYAMGWYRQAPGKERELVAAISRSGGSTYYADSVKGRFTISRDNAKNTVYLQMNSLKPEDTAVYYCAKYFRPVQGDKWGFKYWGQGTQVTVSS” as the sequence, how does the “polyreactivity (PSR sort gate)” value read?
Its value is “high polyreactivity”.

With “QVQLVESGGGLVQAGGSLRLSCAASGRIITYYAMGWYRQAPGKERELVAAITASGSRTYYADSVKGRFTISRDNAKNTVYLQMNSLKPEDTAVYYCAALSRLSPLSGSYYWGQGTQVTVSS” as the sequence, how does the “polyreactivity (PSR sort gate)” value read?
Its value is “high polyreactivity”.

With “QVQLVESGGGLVQAGGSLRLSCAASGRIIYGNAMGWYRQAPGKERELVAAITSGGSTNYADSVKGRFTISRDNAKNTVYLQMNSLKPEDTAVYYCNAVVYSPYRYEYWGQGTQVTVSS” as the sequence, how does the “polyreactivity (PSR sort gate)” value read?
Its value is “low polyreactivity”.

For “QVQLVESGGGLVQAGGSLRLSCAASGRIIYGYAMGWDRQAPGKEREFVARINVSGTSTFYADSVKGRFTISRDNAKNTVYLQMNSLKTVDTAVYDCAARGLPSNYYYYVHGYIMDHWGQGTQVSVSS”, which “polyreactivity (PSR sort gate)” value is on record?
The value was “low polyreactivity”.

For “QVQLVESGGGLVQAGGSLRLSCAASGRIIYIYAMGWYRQAPGKERELVAAITASSGSTNYADSVKGRFTISRDNAKNTVYLQLNSLKPEDTAVYYCAAAPSRTLLRQSKYYYWGQGTQVTVSS”, which “polyreactivity (PSR sort gate)” value is on record?
The value was “low polyreactivity”.

For “QVQLVESGGGLVQAGGSLRLSCAASGRIIYKYAMGWYRQAPGKERELVAAISYSGGSTYYADSVKGRFTISRDNAKNTVYLQMKSLKPEDTAVYYCNAKPPYGVRSWGDYWGQGTQVNVSS”, which “polyreactivity (PSR sort gate)” value is on record?
The value was “low polyreactivity”.

For “QVQLVESGGGLVQAGGSLRLSCAASGRIIYPNTMGWYRQAPGKERELVAAINRLGGSTYYADSVKGRFTISRDYAKNTVYLQMNSLIPEDTAVYYCAAYTTWTRSGYYDFTSYFWGQGTQVTVSS”, which “polyreactivity (PSR sort gate)” value is on record?
The value was “high polyreactivity”.

With “QVQLVESGGGLVQAGGSLRLSCAASGRIIYPYALGWYRQAPGKERELVAAISSGSSTNYADSVKGRFTISRDNAKNTVYLQMNSLQPEDTAVYYCNADLVSGVVYDSDYWGQGTQVTVSS” as the sequence, how does the “polyreactivity (PSR sort gate)” value read?
The value was “low polyreactivity”.

Which “polyreactivity (PSR sort gate)” value does the source give for “QVQLVESGGGLVQAGGSLRLSCAASGRIIYRYAMGWYRQAPGKERELVATITWSTTSTYYADSVKGRFTISRDNAKNTVYLEMNSLKPEDTAVYYCASSIIPGFRRDPFGYWGQGTQVTVSS” here?
Its value is “low polyreactivity”.

For “QVQLVESGGGLVQAGGSLRLSCAASGRIIYTYAMAWYRQAPGKERELVAAISWSGGSTYYADSVKGRFTISRDNAKNTVYLQMNSMKPEDTAVYYCNAAYYGYENLSKRGYWGQGTQVTVSS”, which “polyreactivity (PSR sort gate)” value is on record?
Its value is “high polyreactivity”.

With “QVQLVESGGGLVQAGGSLRLSCAASGRIIYVNAMGWYRQAPGKERELVAAISSRGGTTYYADSVKGRFTISRDNAKNTVYLQMNSLKPEDTAVYYCNAGRVRHGNDYWGQGTQVTVSS” as the sequence, how does the “polyreactivity (PSR sort gate)” value read?
The value was “high polyreactivity”.

Which “polyreactivity (PSR sort gate)” value does the source give for “QVQLVESGGGLVQAGGSLRLSCAASGRIKGKNAMGWYRQAPGKERELVAAISSTGSTYYADSVKGRFSISRDNAKNTVYLQMNSLKPEDTAVYYCAATVEWWPGGWFDYWGQGTQVTVSS” here?
The value was “high polyreactivity”.

For “QVQLVESGGGLVQAGGSLRLSCAASGRILAANAMGWYRQAPGKERELVAAISWSGGRTYYADSVKGRFTISRDNAKNTVYLQMNSLKPEDTAVYYCIKLALAGYDYWGQGTQVTVSS”, which “polyreactivity (PSR sort gate)” value is on record?
The value was “high polyreactivity”.

For “QVQLVESGGGLVQAGGSLRLSCAASGRILASYAMGWYRQAPGKERELVAAIRYRGSTSYADSVKGRFTISRDNAKNTVYLQMNSLKPEDTAVYYCNAGLEYYYWGYTWEFDYWGQGTQVTVSS”, which “polyreactivity (PSR sort gate)” value is on record?
The value was “low polyreactivity”.

Which “polyreactivity (PSR sort gate)” value does the source give for “QVQLVESGGGLVQAGGSLRLSCAASGRILASYAMGWYRQAPGKEWELVAAIRYRGSTSYADSVKGRFTISRDNAKNTVYLQMNSLKPEDTGVYYCAAKWHVRGRGARYRYDYDFWGQGTQVTVSS” here?
Its value is “low polyreactivity”.

For “QVQLVESGGGLVQAGGSLRLSCAASGRILATYTKGWYRPAPGKERELVATITSGGRTTYADSVKGRFTISRDNAKNTVYLQMNSLKPEDTAVYYCNVAYWYYRKYRPLWGRDYYWGQGTQVTVSS”, which “polyreactivity (PSR sort gate)” value is on record?
The value was “high polyreactivity”.

Which “polyreactivity (PSR sort gate)” value does the source give for “QVQLVESGGGLVQAGGSLRLSCAASGRILCGNTMGWYRQAPGKERELVAAISWNGGGTYYADSVKGRFTISRDNAKNTVYLQMNSLKPEDTAVYYCAAYKEPYYEEYGYWGQGTQVTVSS” here?
The value was “low polyreactivity”.

For “QVQLVESGGGLVQAGGSLRLSCAASGRILDGYAMGWYRQATGKERELVAAISRTGGGTYYADSVKGRFTISRDNSKNTVFLQMISLKPEDTAVYYCAKRRYYITLQADFDYWGQGTQVTVSS”, which “polyreactivity (PSR sort gate)” value is on record?
The value was “low polyreactivity”.

With “QVQLVESGGGLVQAGGSLRLSCAASGRILDIYAMGWYRQAPGKDRELVAAINSDGRTYYADSVKGRFTISRDNAKNTVYLQMNSLKPEDTAVYYCNARHHNKVARFDYWGQGTQVTVSS” as the sequence, how does the “polyreactivity (PSR sort gate)” value read?
The value was “low polyreactivity”.

With “QVQLVESGGGLVQAGGSLRLSCAASGRILFGNMGWYRQAHGKERELVAAISRGTGSTDYADSVKGRFTISRDNAKNTVYLQMNSLKPEDTAVYYCYARSYRVHLHYWRKWEYDYWGQGTQVTVSS” as the sequence, how does the “polyreactivity (PSR sort gate)” value read?
Its value is “high polyreactivity”.

For “QVQLVESGGGLVQAGGSLRLSCAASGRILGDNVMGWYRQAPGKERELVAAISSGSGSTYYADSVKGRFTISRDKAKNTVYLQMNSLKPEDTAVYYCAAGPYIYPGYDYWGQGTQVTVSS”, which “polyreactivity (PSR sort gate)” value is on record?
Its value is “low polyreactivity”.

For “QVQLVESGGGLVQAGGSLRLSCAASGRILGDYAMGWYRQAPGKEREFVAAIDYNGGSTNYADSVKGRFTISRDNAKNTVYLQMNSLKPEDTAVYYCAAPGFPSRNGFGYWGQGTQVTVSS”, which “polyreactivity (PSR sort gate)” value is on record?
The value was “low polyreactivity”.

For “QVQLVESGGGLVQAGGSLRLSCAASGRILGLYAMGWYRQAPGKESELVAAISRGGGSTYYADSLKGRFTISRDNAKNTVYLQMNSLKPEDTAVYYCATGLGYFSRLDYWGQGTQVTVSS”, which “polyreactivity (PSR sort gate)” value is on record?
Its value is “low polyreactivity”.

With “QVQLVESGGGLVQAGGSLRLSCAASGRILGVYVMGWYRQAPGKERELVAAISGGGRTNYADSVKGRFTISRDNAKNTVYLQMNSLKPEDTAVYYCNAERPYQYYPGIYRWYYYWGQGTQVTVSS” as the sequence, how does the “polyreactivity (PSR sort gate)” value read?
Its value is “low polyreactivity”.

With “QVQLVESGGGLVQAGGSLRLSCAASGRILGWNAMGWYRQAPGKERELVAAISTSGTDTYYADSVKGRFTISSDNAKNTVYLQMNCLIPEDTAVYYCAADTVTIYWGLSVSYGCWGQGTQVTVSS” as the sequence, how does the “polyreactivity (PSR sort gate)” value read?
The value was “low polyreactivity”.

With “QVQLVESGGGLVQAGGSLRLSCAASGRILGYYAMGGSRQAPGKERELVAAISSGDSTNYADSVKGRFTISRDNAKNTVYLQMNSLKPEDTAVYYCAAKGWIWNPYNYWGQGTQGTVSS” as the sequence, how does the “polyreactivity (PSR sort gate)” value read?
The value was “low polyreactivity”.

Which “polyreactivity (PSR sort gate)” value does the source give for “QVQLVESGGGLVQAGGSLRLSCAASGRILGYYAMGWYRQAPGKERDLVAAISRAGSTNYADSVKGRFTISRDNAKNTVYLQMNSLKAEDTAVYYCAARPYRRGYNYWGQGTQVTVSS” here?
Its value is “high polyreactivity”.

For “QVQLVESGGGLVQAGGSLRLSCAASGRILGYYAMGWYRQAPGKERELVAAITYSGGSTYYADSVKGRFTISRDNAKNTVYLQMNSLKPEDTAVYYCAADKWLLGLYGSTWNDYWGQGTQVTVSS”, which “polyreactivity (PSR sort gate)” value is on record?
The value was “low polyreactivity”.

With “QVQLVESGGGLVQAGGSLRLSCAASGRILHRYVMGWYIQAPGKERELVAAISSGGSTTYADSVKGRFTISRDNAKNTVYLQIYSLKPEDTAVYYCAKYSFWSTSRMDYWGQGTQVTVSS” as the sequence, how does the “polyreactivity (PSR sort gate)” value read?
The value was “low polyreactivity”.

Which “polyreactivity (PSR sort gate)” value does the source give for “QVQLVESGGGLVQAGGSLRLSCAASGRILHRYVMGWYRQAPGKERELVAAISSGGSTTYADSVKGRFTISRDNAKYTVYLQMNSLKPEDTAVYYCAADARYSRRYYYWGQGTQVTVSS” here?
The value was “low polyreactivity”.

With “QVQLVESGGGLVQAGGSLRLSCAASGRILIRYAMGWYRQAPGKERELVASISTRGASTSYADSVKGRFTISRDNAKNTVYLQMNSLKPEDTAVYYCNARGSYPPYRSYGYWGQGTQVTVSS” as the sequence, how does the “polyreactivity (PSR sort gate)” value read?
The value was “low polyreactivity”.

For “QVQLVESGGGLVQAGGSLRLSCAASGRILKRYAMGWYRQAPGKERELVAAINWNGGSTYYADSVKGRFTISRDNAKNTVYLQMNSLKPEDTAVYYCAAYYGTPRGFDYWGQGTQVTVSS”, which “polyreactivity (PSR sort gate)” value is on record?
Its value is “high polyreactivity”.

With “QVQLVESGGGLVQAGGSLRLSCAASGRILKYYAMAWYREAPGKERELVAAIWSGGSTYYADSVKGRFTISRDNAKNTVYLLMNSLKPEDTAVYYCNAEYQWGGYGYDYWGQGTQVTVSS” as the sequence, how does the “polyreactivity (PSR sort gate)” value read?
The value was “low polyreactivity”.

For “QVQLVESGGGLVQAGGSLRLSCAASGRILLRNVMGWYRQAPGKERELVAVITRTGITYYADSVMGRFTITRDNAKNTVYLQMTSLKPEDTAVYYCAAGLPKYEHDYWGQGTQVTVSS”, which “polyreactivity (PSR sort gate)” value is on record?
The value was “low polyreactivity”.

With “QVQLVESGGGLVQAGGSLRLSCAASGRILLTYAMGWYRQAPGKERELVAAISSDSRTYYADSVKGRFTISRDNAKNTVYLQMNSLIPEDTAVYYCVRRRYKYDYWGQGTQVTVSS” as the sequence, how does the “polyreactivity (PSR sort gate)” value read?
Its value is “low polyreactivity”.

For “QVQLVESGGGLVQAGGSLRLSCAASGRILPFNAMGWHRQAPGKERELVDAIRWRGSSTYYADSVKGRFTISRDNAKNTVYLQMNSLKPEDTAVYYCAAPSSVRGKVISADYGYWGQGTQVTVSS”, which “polyreactivity (PSR sort gate)” value is on record?
Its value is “high polyreactivity”.

For “QVQLVESGGGLVQAGGSLRLSCAASGRILPRNAMGWYRQAPGKERELVAGISSDGSPNYADSVKGRFTISRDKAKNTVYLQMNSLNPEDTAVYYCYADYLFYAFDYWGQGTQVTVSS”, which “polyreactivity (PSR sort gate)” value is on record?
The value was “low polyreactivity”.

With “QVQLVESGGGLVQAGGSLRLSCAASGRILRGNAMGGYRQAPGKERELVADINYSDGSTYYADSVKGRFTISRDNAKNTVYLQMNSLKPEDTAVYYCAKKNPLVFTSGMDYWGQGTQVTVSS” as the sequence, how does the “polyreactivity (PSR sort gate)” value read?
The value was “low polyreactivity”.

For “QVQLVESGGGLVQAGGSLRLSCAASGRILRINPMGWYRQAPGKERELVAAISGSGGTTYYADSVKGRFTISRDNAKNTVYLQMNSLKPEDTAVYYCNKAIWYAEYDYWGQGTQVTVSS”, which “polyreactivity (PSR sort gate)” value is on record?
The value was “low polyreactivity”.
